According to patent US20060172357A1, “Detecting human antibodies in non-human serum” (Genentech, priority 2004, published 2006):

How the values were obtained:
[1] = biological target: full-length CD20 molecule (human) (UniProt P11836); experiment: ELISA, full-length CD20 coated at 1 µg/mL in PBS, detection sheep anti-hu IgG HRP (monkey adsorbed)
[2] = biological target: full-length CD20 molecule (human) (UniProt P11836); experiment: ELISA, full-length CD20 coated at 5 µg/mL in PBS, detection goat anti-hu F(ab')2 HRP
[3] = biological target: full-length CD20 molecule (human) (UniProt P11836); experiment: ELISA, full-length CD20 coated at 5 µg/mL in PBS, detection sheep anti-hu IgG HRP (monkey adsorbed)
[4] = biological target: full-length CD20 molecule (human) (UniProt P11836); experiment: ELISA, full-length CD20 coated at 1 µg/mL in PBS, detection goat anti-hu F(ab')2 HRP
[5] = biological target: disulfide-cyclized Bis-biotin CD20 51-mer; experiment: SPR Biacore 3000, method 2: Bis-CD20-51mer on streptavidin chip at 1037 RU, 2H7-IgG injected, bivalent analyte model, apparent KD
Chain of disulfide-cyclized Bis-biotin CD20 51-mer (peptide, as listed by the source): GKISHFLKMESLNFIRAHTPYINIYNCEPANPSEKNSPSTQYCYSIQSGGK

[6] = biological target: T1, biotinylated CD20 35-mer (streptavidin plate ELISA; mono- or bis-biotin form not stated); experiment: ELISA, streptavidin plate with CD20 35-mer at 2 µg/ml, 1 wash cycle between steps, goat anti-human IgG (H+L) HRP detection
T1 sequence (peptide, biotinylated (mono or bis not stated); C-terminal amide; disulfide-cyclized): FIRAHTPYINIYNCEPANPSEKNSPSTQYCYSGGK

[7] = biological target: T1, biotinylated CD20 35-mer (streptavidin plate ELISA; mono- or bis-biotin form not stated); experiment: ELISA, streptavidin plate with CD20 35-mer at 10 µg/ml, 1 wash cycle between steps, goat anti-human IgG (H+L) HRP detection
[8] = biological target: T1, biotinylated CD20 35-mer (streptavidin plate ELISA; mono- or bis-biotin form not stated); experiment: ELISA, streptavidin plate with CD20 35-mer at 10 µg/ml, 3 wash cycles between steps, goat anti-human IgG (H+L) HRP detection
[9] = biological target: Bis-biotin disulfide-cyclized CD20 35-mer; experiment: SPR Biacore 3000, method 2: Bis-CD20-35mer on streptavidin chip at 685 RU, 2H7-IgG injected, bivalent analyte model, apparent KD
[10] = biological target: T2, disulfide-cyclized mono-biotin CD20 35-mer; experiment: SPR Biacore 3000, method 1: Mono-CD20-35mer on streptavidin chip at 95 RU, 2H7-IgG injected, 1:1 model, apparent KD
T2 sequence (peptide, N-terminal biotin; C-terminal amide; disulfide-cyclized): T1 sequence (peptide, biotinylated (mono or bis not stated); C-terminal amide; disulfide-cyclized)

[11] = biological target: T1, biotinylated CD20 35-mer (streptavidin plate ELISA; mono- or bis-biotin form not stated); experiment: ELISA, streptavidin plate with CD20 35-mer at 10 µg/ml, 2 wash cycles between steps, goat anti-human IgG (H+L) HRP detection
[12] = biological target: T1, biotinylated CD20 35-mer (streptavidin plate ELISA; mono- or bis-biotin form not stated); experiment: ELISA, streptavidin plate with CD20 35-mer at 20 µg/ml, 1 wash cycle between steps, goat anti-human IgG (H+L) HRP detection
[13] = biological target: T1, biotinylated CD20 35-mer (streptavidin plate ELISA; mono- or bis-biotin form not stated); experiment: ELISA, streptavidin plate with CD20 35-mer at 20 µg/ml, 2 wash cycles between steps, goat anti-human IgG (H+L) HRP detection
rhuMAb2H7 [14] = experiment: direct sandwich ELISA, sheep anti-human IgG capture, goat anti-human IgG (H+L) HRP detection diluted in Buffer A + 5 mM EDTA (A3)
rhuMAb2H7 [15] = experiment: direct sandwich ELISA, sheep anti-human IgG capture, goat anti-human IgG HRP detection, buffer E (HEPES) in all steps, n = 8
rhuMAb2H7 [16] = experiment: direct sandwich ELISA, sheep anti-human IgG capture, goat anti-human IgG (H+L) HRP detection diluted in Buffer D
rhuMAb2H7 [17] = experiment: direct sandwich ELISA, sheep anti-human IgG capture, goat anti-human IgG (H+L) HRP detection diluted in Buffer A + 0.35 M NaCl (A1)
rhuMAb2H7 [18] = experiment: bridging ELISA, sheep anti-human IgG capture and detection; D1 + 0.2% rabbit IgG in blocking, sample and detection buffers
rhuMAb2H7 [19] = experiment: direct sandwich ELISA, sheep anti-human IgG capture, goat anti-human IgG HRP detection, buffer B in all steps, n = 8
rhuMAb2H7 [20] = experiment: direct sandwich ELISA, sheep anti-human IgG capture, goat anti-human IgG (H+L) HRP detection diluted in Buffer A
rhuMAb2H7 [21] = experiment: direct sandwich ELISA, sheep anti-human IgG capture, goat anti-human IgG HRP detection, buffer D (with BGG) in all steps, n = 8
rhuMAb2H7 [22] = experiment: bridging ELISA, sheep anti-human IgG capture and detection; blocking D1 + 0.2% fish gelatin, other diluents not given
rhuMAb2H7 [23] = experiment: direct sandwich ELISA, sheep anti-human IgG capture, goat anti-human IgG (H+L) HRP detection diluted in Buffer D - BGG (D1)
rhuMAb2H7 [24] = experiment: direct sandwich ELISA, sheep anti-human IgG capture, goat anti-human IgG (H+L) HRP detection diluted in Buffer A + 0.25% CHAPS (A4)
rhuMAb2H7 [25] = experiment: bridging ELISA, sheep anti-human IgG capture and detection; blocking D, sample diluent D1, detection diluent D1
rhuMAb2H7 [26] = experiment: direct sandwich ELISA, sheep anti-human IgG capture, goat anti-human IgG (H+L) HRP detection diluted in Buffer A + 0.2% BGG (A2)
rhuMAb2H7 [27] = experiment: bridging ELISA, sheep anti-human IgG capture and detection; D1 + 0.2% mouse IgG in blocking, sample and detection buffers
rhuMAb2H7 [28] = experiment: bridging ELISA, sheep anti-human IgG capture and detection; blocking D, sample diluent D, detection diluent D
rhuMAb2H7 [29] = experiment: bridging ELISA, sheep anti-human IgG capture and detection; D1 + 0.2% donkey IgG in blocking, sample and detection buffers
rhuMAb2H7 [30] = experiment: bridging ELISA, sheep anti-human IgG capture and detection; blocking D, sample diluent D, detection diluent A
rhuMAb2H7 [31] = experiment: direct sandwich ELISA, sheep anti-human IgG capture, goat anti-human IgG HRP detection, buffer A in all steps, n = 8
rhuMAb2H7 [32] = experiment: direct sandwich ELISA, sheep anti-human IgG capture, goat anti-human IgG HRP detection, buffer C (with BGG) in all steps, n = 8

Chain of full-length CD20 molecule (human) (P11836 whole entry): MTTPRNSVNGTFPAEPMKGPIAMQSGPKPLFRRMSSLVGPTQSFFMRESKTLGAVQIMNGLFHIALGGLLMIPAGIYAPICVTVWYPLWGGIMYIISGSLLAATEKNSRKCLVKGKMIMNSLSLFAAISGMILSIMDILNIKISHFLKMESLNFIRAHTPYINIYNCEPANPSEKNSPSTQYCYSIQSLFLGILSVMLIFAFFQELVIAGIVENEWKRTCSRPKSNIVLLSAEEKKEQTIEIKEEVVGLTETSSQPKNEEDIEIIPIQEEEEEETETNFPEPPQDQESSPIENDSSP
Chain of rhuMAb2H7 (antibody) (VH): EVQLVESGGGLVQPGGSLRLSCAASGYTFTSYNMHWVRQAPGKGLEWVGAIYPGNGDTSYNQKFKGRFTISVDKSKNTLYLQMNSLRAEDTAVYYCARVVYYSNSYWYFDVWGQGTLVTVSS
Chain of rhuMAb2H7 (antibody) (VL): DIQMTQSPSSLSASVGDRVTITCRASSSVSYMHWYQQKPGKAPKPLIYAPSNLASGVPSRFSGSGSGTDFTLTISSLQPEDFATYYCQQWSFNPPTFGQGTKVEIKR

Q: What does the source list for Rituxan (antibody)?
A: signal of 247 ng/ml of Rituxan (O.D.450 nm) [1]: 0.012 O.D.; signal of 247 ng/ml of Rituxan (O.D.450 nm) [2]: 0.166 O.D.; signal of 247 ng/ml of Rituxan (O.D.450 nm) [3]: 0.023 O.D.; signal of 247 ng/ml of Rituxan (O.D.450 nm) [4]: 0.065 O.D.

Q: rhuMAb2H7 (antibody) was tested. Which Kd [5] did it give?
A: Its Kd is 110 nM.

Q: And the O.D. (450-650 nm) for 160 µg/ml of rhuMAb2H7 [6]?
A: Its O.D. (450-650 nm) for 160 µg/ml of rhuMAb2H7 is 0.063 O.D.

Q: And the O.D. (450-650 nm) for 160 µg/ml of rhuMAb2H7 [7]?
A: Its O.D. (450-650 nm) for 160 µg/ml of rhuMAb2H7 is 0.063 O.D.

Q: What about the O.D. (450-650 nm) for 160 µg/ml of rhuMAb2H7 [8] of the same substance?
A: Its O.D. (450-650 nm) for 160 µg/ml of rhuMAb2H7 is 0.009 O.D.

Q: What about the Kd [9] of the same substance?
A: The Kd was 500 nM.

Q: What about the Kd [10] of the same substance?
A: The Kd was 41700 nM.

Q: What about the O.D. (450-650 nm) for 160 µg/ml of rhuMAb2H7 [11] of the same substance?
A: Its O.D. (450-650 nm) for 160 µg/ml of rhuMAb2H7 is 0.009 O.D.

Q: What about the O.D. (450-650 nm) for 160 µg/ml of rhuMAb2H7 [12] of the same substance?
A: The O.D. (450-650 nm) for 160 µg/ml of rhuMAb2H7 was 0.055 O.D.

Q: What about the O.D. (450-650 nm) for 160 µg/ml of rhuMAb2H7 [13] of the same substance?
A: The O.D. (450-650 nm) for 160 µg/ml of rhuMAb2H7 was 0.01 O.D.

Q: What does the source list for “sheep anti-human IgG heavy (H) and light (L) chain, cynomolgus monkey serum adsorbed (Cat #CUS1684, The Binding Site) (antibody)”?
A: 240 ng/ml 2H7 (O.D. 450-650 nm) (rhuMAb2H7 [14]): 2.13 O.D.; Signal, O.D. 450-650 nm at 240 ng/ml rhuMAb2H7 (rhuMAb2H7 [15]): 2.1 O.D.; 240 ng/ml 2H7 (O.D. 450-650 nm) (rhuMAb2H7 [16]): 0.962 O.D.; 240 ng/ml 2H7 (O.D. 450-650 nm) (rhuMAb2H7 [17]): 2 O.D.; Signal of 2H7 at 240 ng/ml (rhuMAb2H7 [18]): 0.06 O.D.; Signal, O.D. 450-650 nm at 240 ng/ml rhuMAb2H7 (rhuMAb2H7 [19]): 1.91 O.D.; 240 ng/ml 2H7 (O.D. 450-650 nm) (rhuMAb2H7 [20]): 2.23 O.D.; Signal, O.D. 450-650 nm at 240 ng/ml rhuMAb2H7 (rhuMAb2H7 [21]): 1.72 O.D.; Signal of 2H7 at 240 ng/ml (rhuMAb2H7 [22]): 0.34 O.D.; 240 ng/ml 2H7 (O.D. 450-650 nm) (rhuMAb2H7 [23]): 1.65 O.D.; 240 ng/ml 2H7 (O.D. 450-650 nm) (rhuMAb2H7 [24]): 2.15 O.D.; Signal of 2H7 at 240 ng/ml (rhuMAb2H7 [25]): 1.04 O.D.; 240 ng/ml 2H7 (O.D. 450-650 nm) (rhuMAb2H7 [26]): 2.28 O.D.; Signal of 2H7 at 240 ng/ml (rhuMAb2H7 [27]): 0.09 O.D.; Signal of 2H7 at 240 ng/ml (rhuMAb2H7 [28]): 1.15 O.D.; Signal of 2H7 at 240 ng/ml (rhuMAb2H7 [29]): 0.38 O.D.; Signal of 256 ng/ml of 2H7 (rhuMAb2H7 [30]): 1.6 O.D.; Signal, O.D. 450-650 nm at 240 ng/ml rhuMAb2H7 (rhuMAb2H7 [31]): 2.04 O.D.; Signal, O.D. 450-650 nm at 240 ng/ml rhuMAb2H7 (rhuMAb2H7 [32]): 1.88 O.D.
